Test results as given in the supplement of paper PMC9170038.

Columns and labels:
MS2 coat protein [1] = assay: apparent KD of MS2 coat protein, switch ON state; designed switch direction (-1 OFF switch, 1 ON switch): -1; higher = weaker reporter binding; conditions: FMN input: 0 or 200 uM; Eterna round: R93 (includes R88 designs)
How it was run: (§1)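 Illumina sequencing clusters served as templates for on-chip transcription of the designed RNA switches. SNAP-549-labelled MS2 coat protein was then titrated in twofold steps from 0.7 or 1.5 nM to 3 µM, allowing 0.8–1.5 h per step at first and 10–20 min per step later. The buffer held 100 mM Tris-HCl pH 7.5, 80 mM KCl and 4 mM MgCl2, without or with constant ligand. Apparent KD is the median per design of normalised cluster binding-curve fits.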

MS2 coat protein [2] = assay: apparent KD of MS2 coat protein, switch OFF state (with FMN for OFF switches, without FMN for ON switches); designed switch direction (-1 OFF switch, 1 ON switch): -1; higher = weaker reporter binding; conditions: FMN input: 0 or 200 uM; Eterna round: R93 (includes R88 designs)
How it was run: as §1

Sequence	apparent KD of MS2 coat protein (MS2 coat protein [1])	apparent KD of MS2 coat protein (MS2 coat protein [2])
AACAGUACAGGAUAUACAUGAGGAUCACCCAUGUGAAAAUUAAGUGGAGAACCACAAUGUAGAAGGGUACUGGA [Mat - Exclusion 3 - Eli mod - D48]	133 nM	57.3 nM
CCUAUGUCAGGAUAUCAGUAGUAAAAAAAAAAAAUUACUACUGAGAAGGGACAUGAGGAUCACCCAUGUUCAAA [EX4 313: Super Stable 13]	42.4 nM	66.4 nM
AAGAAGUCAGGAUAUGCUGCUCGUCACAAAAGUGAUGAGUAGCAGAAGGGACAUGAGGAUCACCCAUGUAAAGA [JL eternac mod 0]	52 nM	67.5 nM
AAAAAACAUGAGGAUCACCCAUGUCAGGAUAUCUGUAUUCAAUCCUCGGAUUGAAUACAGAGAAGGGAUAUGAA [Ex1: 604]	42.2 nM	62.2 nM
AAAAAACAUGAGGAUCACCCAUGUAAGGAUAUGCUCGUAAGUGCGAAAGCACAAAUGAGCAGAAGGUACAAAAA [66%, Wbt, 44]	19.2 nM	31 nM
AGAAAGUCAGGAUAUGCGAAGGCGUCUGAUAGACGAGGCUAGCAGAAGGGACAUGAGGAUCACCCAUGUGAAAA [Mat - Exclusion 4 - Eli mod - D86]	48.4 nM	133 nM
GGUUGGCGAGGAUAUACAUGAGGAUCACCCAUGUGAGAGAAAAAAGUGAGAAUGAAAAGUAGAAGGCGCUGACG [salish99-ex3-35]	46.2 nM	215 nM
AAAUGACAUGAGGAUCACCCAUGUCAGGAUAUGACUUGAAAAAUAAAAUAAAAACAUGUCAGAAGGGACAUGAA [Design 47: Sub-opt E]	16.5 nM	17.6 nM
AUCAUGUCAGGAUAUCGUGCAGCUACCGAAAGGUAGCUGCACGAGAAGGGACAUGAGGAUCACCCAUGUAUGAA	27.7 nM	24.3 nM
AAAACGUGAGGAUAUGCACCAAAAAAGGUUUUUCGGGUACGACAUGAGGAUCACCCAUGUAGAAGGCACGAAAA [Frodo Flailing 14 - Jieux - Exclusion 2]	20.3 nM	14.1 nM
AAACAACAUGAGGAUCACCCAUGUUAGGAUAUGAACGAAAUAAAAUAAAAAUAAAAGUUCAGAAGGGACAAAAA [Mat - Exclusion 1 - Eli mod - D21]	23.4 nM	25.6 nM
AUGUACCUAGGAUAUACAUGAGGAUCACCCAUGUAUUGGGAGCAAUCCAGUUAAUAUUGUAGAAGGAGGUGAAA [JR_Exc003_Sub317]	38.1 nM	65 nM
ACGACUAGAGGAUAUACAUGAGGAUCACCCAUGUAACUGUCAGAAAACUGACGGAGAUGUAGAAGGCUAGUCGA [Mat - Exclusion 3 - Neo mod - D80]	16.7 nM	36.1 nM
AAAGGAGUAGGAUAUACAUGAGGAUCACCCAUGUAAAAAACAUAAUAAAAGAACUUAUGUAGAAGGGCUCCAAA [69%, Moding Meechl, 11]	35.8 nM	77.9 nM
AACAGUACAGGAUAUACAUGAGGAUCACCCAUGUGAUAGGAAUAAAACAAAAAUAAAAGUAGAAGGGUACUGGA [Ruby 46]	34 nM	145 nM
AAAAAGGUAGGAUAUACAUGAGGAUCACCCAUGUAAAAAAACGCAGAAAAAAACAAUUGUAGAAGGGCCAAAAA [Ex3 Malc#6]	15.9 nM	10.6 nM
AAGUACGAAGGAUAUACAUGGAUAUACAUUCAUGUGGACCUACAUGAGGAUCACCCAUGUAGAAGGUCGUAAUA [Mat - Same state - Mayanna Mod - D145]	24.6 nM	12.8 nM
AAUAAGAGAGGAUAUACAUAAUAAAAGAAAAGAAACAAAGAACAUGAGGAUCACCCAUGUAGAAGGCUCAAUAA [Sonbef]	21.9 nM	18.9 nM
AAAAAACAUGAGGAUCACCCAUGUGAGGAUAUCGGUAGUGAGGCUAUAGUGUCAGUAAUGAGAAGGCACAUAAA [Brourd 613 Mod 11 - Jieux - Exclusion 1]	24.6 nM	29.7 nM
CCCAUGUCAGGAUAUCAGUAGUAAAAAAAAAAAAUUACUACUGAGAAGGGACAUGAGGAUCACCCAUGUACCUU [EX4 319: Super Stable 19]	72.1 nM	68.1 nM
AAAAAAGGAGGAUAUACGAACAUGUCGAAAGACGUGAAGGGACAUGAGGAUCACCCAUGUAGAAGGUCUAAAAA [Mat - Exclusion 2 - JL mod - D87]	30.7 nM	29.9 nM
AAUGGUGCAGGAUAUACAUGAGGAUCACCCAUGUACAUCAGACAUAUGGUCGAAACAUGUAGAAGGGCACCAAA [Ex 3May 55]	107 nM	336 nM

Sequence	apparent KD of MS2 coat protein (MS2 coat protein [1])	apparent KD of MS2 coat protein (MS2 coat protein [2])
AAAAAGUGAGGAUAUACAUGAGGAUCACCCAUGUGUAUAAAAAAUUACACAAAAGCAUGUAGAAGGCACUAAAA [JL In the Red]	37 nM	143 nM
AAUAUGUAAGGAUAUGCUGCUCGUCACAAAAGUGAUGAGUAGCAGAAGGUACAUGAGGAUCACCCAUGUAAAGA [JL eternac mod 13]	30.9 nM	52 nM
AACUGACAUGAGGAUCACCCAUGUCAGGAUAUGCAUCUUAGGAAAAAAAAACUAAGAUGCAGAAGGGACAUGGA [Design 4: Super Stable 4]	23.9 nM	46.2 nM
AUUCUACAUGAGGAUCACCCAUGUGAGGAUAUGCUAUACUAUUGUUGCAAUACUUAGAGCAGAAGGCACAUCGU [JR_EXc001_Sub801]	30.2 nM	66.2 nM
AAAAAACAUGAGGAUCACCCAUGUGAGGAUAUGUACGAAAUAAAUAAAAAAUAAAAGUACAGAAGGCACAAAAA [Mat - Exclusion 1 - Eli mod - D5]	35.5 nM	32.4 nM
AAAAAACAUGAGGAUCACCCAUGUCAGGAUAUCGUUGAAAAAAAAAAAAAAAAAAAAGCGAGAAGGGACACGAA [exclusion1-cac3]	60.7 nM	41.8 nM
AAAAAUUGAGGAUAUACGAACAUGUCGAAAGACGUGAAGGGACAUGAGGAUCACCCAUGUAGAAGGCGAAAGAA [Mat - Exclusion 2 - JL mod - D67]	33.6 nM	18.2 nM
AUCGUUGGAGGAUAUGCUUGGAAAAAAAAAAAAAAAAAAAAACAUGAGGAUCACCCAUGUAGAAGGUCAAUGGA [Banishment 6 - Jieux - Exclusion 2]	49.9 nM	30.5 nM
AAAACGCUAGGAUAUACAAAAAAAAAGGGAAAAAAAAAGGGACAUGAGGAUCACCCAUGUAGAAGGAGCAAAAA [Diamond 87]	68.5 nM	108 nM
GUGUACAGAGGAUAUAUAUGAGCAUGGAAACAUGCAUCCUCACAUGAGGAUCACCCAUGUAGAAGGCUGUACAC [Ex2: 704]	624 nM	41.3 nM
AAUAACCGAGGAUAUACAAAACUUGUGAUCUAGUGGAUUUUACAUGAGGAUCACCCAUGUAGAAGGCGGAAAAG [Veenquge]	61.3 nM	212 nM
AAAUCGGCAGGAUAUACAUGAAAAUUAAAAAAAAAAAAAAAACAUGAGGAUCACCCAUGUAGAAGGGUCAAAAA [Exclusion 2 - Omei 3]	77.9 nM	75.2 nM
AACAGUACAGGAUAUACAUGAGGAUCACCCAUGUGAAGAAUAAGUGGAGUACCACAAAGUAGAAGGGUACUGGA [Ruby 88]	31.8 nM	104 nM
GAAGAACAUGAGGAUCACCCAUGUGAGGAUAUACAGAAGGGAAUAAAAUAACCUGAAAGUAGAAGGCACAAGAA [Ex 1 May 41]	45.7 nM	65.8 nM
CUCAAGUAAGGAUAUGAAAGAAAAGAAGAGAAAGAAAAGAAUCAGAAGGUACAUGAGGAUCACCCAUGUAAGAA [EteRNA is fun!]	30.3 nM	23.1 nM
GGAAAACAUGAGGAUCACCCAUGUAAGGAUAUGCUAAAAAAAAAAAAAAAAAAAAAAUGCAGAAGGUACUAAAG [Amethyst 18]	34 nM	118 nM
AUAAGUCGAGGAUAUACAAAAUGCUAGCGAAAGCUAGCAUAACAUGAGGAUCACCCAUGUAGAAGGCGACAAUA [Tetraloop hairpin BlockHead Variation2]	21.7 nM	21.3 nM
CUCAAGUAAGGAUAUCUAAGAAAAGAAGAGAAAGAAAAGAAAGAGAAGGUACAUGAGGAUCACCCAUGUAAGAA [EteRNA is fun!]	34.4 nM	29.9 nM
AAAAAUGGAGGAUAUACAUGAGGAUCACCCAUGUGUAACUAUACUAAGCACAAAAAAAGUAGAAGGCCAAAAAA [Gilly Gone Silly 9 - Jieux - Exclusion 3]	53.5 nM	57.4 nM
AAACGUUGAGGAUAUACGAAAAAGGGUAGGUCAAAAAAAACACAUGAGGAUCACCCAUGUAGAAGGCAACGAAA [Similarities v.1 (13nt loop FMN+)]	71.4 nM	45.1 nM
CAGUACUGAGGAUAUACAUGAGGAUCACCCAUGUGAUCAAGCUACGAAAGUAGCACAUGUAGAAGGCAGUACUG [Ex3: 808]	24 nM	19.1 nM
CUCAUGUGAGGAUAUCAGUAGUAAAAAAAAAAAAUUACUACUGAGAAGGCACAUGAGGAUCACCCAUGUACCUU [EX4 326: Super Stable 26]	37.7 nM	42.6 nM
